Measured values from ChEMBL document CHEMBL2074010, “Transport function and hepatocellular localization of mrp6 in rat liver” (Mol Pharmacol, 2000).

Columns and labels:
[1] = substrate: CC(C)C[C@@H]1NC(=O)[C@@H](C(C)C)NC(=O)[C@@H]2CCCN2C(=O)[C@@H](CC(=O)O)NC(=O)[C@@H](Cc2c[nH]c3ccccc23)NC1=O; experiment: TP_TRANSPORTER: uptake in membrane vesicle from Mrp6-expressing Sf9 cells; format: functional, cell membranes
[2] = substrate: CC(C)C[C@@H]1NC(=O)[C@@H](C(C)C)NC(=O)[C@@H]2CCCN2C(=O)[C@@H](CC(=O)O)NC(=O)[C@@H](Cc2c[nH]c3ccccc23)NC1=O; experiment: TP_TRANSPORTER: uptake in membrane vesicles from Mrp2-expressing Sf9 cells; format: functional, cell membranes, Membrane vesicle

Protein | Km [1] [µM] | Km [2] [µM]
ATP-binding cassette sub-family C member 6 (Rattus norvegicus) (protein) MNGEHSMATPGESCAGLRVWNQTEQEPVAYHLLNLCFLRAAGSWVPPMYLWVLGPIYLLYIHRHGCCYLRMSRLFKIKMVLGFALILLYTFNAAVPLWRIHRGMPQAPELLIHPTVWLTTMSFATFLIHMERKKGVRASGLLFGYWLLCCLVPAIDTVQQASAGSFRQEPLHHLATYLCLSLVVAELVLSCLVDQPPFFSEDSKPLNPCPEAEASFPSKAMFWWASGLLWKGYRKLLGPKDLWSLERENSSEELVSQLEREWRRNFSELPGHKGHSGMGTPETEAFLQPERSQRGPLLRAIWRVFRSTFLLGTLSLVISDAFRFAVPKLLSLFLEFMGDLESSAWTGWLLAVLMFLSACLQTLFEQQYMYRVKVLQMRLRTAITGLVYRKVLVLSSGSRKSSAAGDVVNLVSVDVQRLVESILHLNGLWLLFLWIIVCFVYLWQLLGPSALTAVAVFLSLLPLNFFITKKRSFHQEEQMRQKASRARLTSSMLRTVRTIKSHGWECAFLERLLHIRGQELGALKTSAFLFSVSLVSFQVSTFLVALVVFAVHTLVAEDNAMDAEKAFVTLTVLSILNKAQAFLPFSVHCLVQARVSFDRLAAFLCLEEVDPNGMVLSPSRCSSKDRISIHNGTFAWSQESPPCLHGINLTVPQGCLLAVVGPVGAGKSSLLSALLGELLKVEGSVSIEGSVAYVPQEAWVQNTSVVENVCFRQELDLPWLQEVLEACALGSDVASFPAGVHTPVGEQGMNLSGGQKQRLSLARAVYRRAAVYLMDDPLAALDAHVSQEVFKQVIGPSGLLQGTTRILVTHTLHVLPQADQILVLANGTIAEMGSYQDLLHRNGALVGLLDGARQPAGEGEGEAHAAATSDDLGGFSGGGTPTRRPERPRPSDAAPVKGSTSEAQMEPSLDDVEVTGLTAGEDSVQYGRVKSATYLSYLRAVGTPLCTYTLFLFLCQQVASFCQGYWLSLWADDPVVDGKQMHSALRGSIFGLLGCLQAIGLFASMAAVFLGGARASCLLFRSLLWDVARSPIGFFERTPVGNLLNRFSKETDIVDVDIPDKMRTLLTYAFGLLEVGLAVSMATPLAIVAILPLMLLYAGFQSLYVATCCQLRRLESASYSSVCSHLAETFQGSQVVRAFQAQGPFTAQHDALMDENQRISFPRLVADRWLAANLELLGNGLVFVAATCAVLSKAHLSAGLAGFSVSAALQVTQTLQWVVRSWTDLENSMVAVERVQDYVHTPKEAPWRLPSSAAQPLWPCGGQIEFRDFGLRHRPELPMAVQGVSLKIHAGEKVGIVGRTGAGKSSLTWGLLRLQEATEGGIWIDGVPITDMGLHTLRSRITIIPQDPVLFPGSLRMNLDLLQENTDEGIWAALETVQLKAFVTSLPGQLQYECSGQGDDLSVGQKQLLCLARALLRKTQILILDEATASVDPGTEIQMQAALERWFAQCTVLLIAHRLRSVMNCARVLVMDEGQVAESGSPAQLLAQKGLFYRLAQESGLA | 17 | –
ATP-binding cassette sub-family C member 2 (Rattus norvegicus) (protein) MDKFCNSTFWDLSLLESPEADLPLCFEQTVLVWIPLGFLWLLAPWQLYSVYRSRTKRSSITKFYLAKQVFVVFLLILAAIDLSLALTEDTGQATVPPVRYTNPILYLCTWLLVLAVQHSRQWCVRKNSWFLSLFWILSVLCGVFQFQTLIRALLKDSKSNMAYSYLFFVSYGFQIVLLILTAFSGPSDSTQTPSVTASFLSSITFSWYDRTVLKGYKHPLTLEDVWDIDEGFKTRSVTSKFEAAMTKDLQKARQAFQRRLQKSQRKPEATLHGLNKKQSQSQDVLVLEEAKKKSEKTTKDYPKSWLIKSLFKTFHVVILKSFILKLIHDLLVFLNPQLLKLLIGFVKSSNSYVWFGYICAILMFAVTLIQSFCLQSYFQHCFVLGMCVRTTVMSSIYKKALTLSNLARKQYTIGETVNLMSVDSQKLMDATNYMQLVWSSVIQITLSIFFLWRELGPSILAGVGVMVLLIPVNGVLATKIRNIQVQNMKNKDKRLKIMNEILSGIKILKYFAWEPSFQEQVQGIRKKELKNLLRFGQLQSLLIFILQITPILVSVVTFSVYVLVDSANVLNAEKAFTSITLFNILRFPLSMLPMVTSSILQASVSVDRLERYLGGDDLDTSAIRRVSNFDKAVKFSEASFTWDPDLEATIQDVNLDIKPGQLVAVVGTVGSGKSSLVSAMLGEMENVHGHITIQGSTAYVPQQSWIQNGTIKDNILFGSEYNEKKYQQVLKACALLPDLEILPGGDMAEIGEKGINLSGGQKQRVSLARAAYQDADIYILDDPLSAVDAHVGKHIFNKVVGPNGLLAGKTRIFVTHGIHFLPQVDEIVVLGKGTILEKGSYRDLLDKKGVFARNWKTFMKHSGPEGEATVNNDSEAEDDDDGLIPTMEEIPEDAASLAMRRENSLRRTLSRSSRSSSRRGKSLKNSLKIKNVNVLKEKEKEVEGQKLIKKEFVETGKVKFSIYLKYLQAVGWWSILFIILFYGLNNVAFIGSNLWLSAWTSDSDNLNGTNNSSSHRDMRIGVFGALGLAQGICLLISTLWSIYACRNASKALHGQLLTNILRAPMRFFDTTPTGRIVNRFSGDISTVDDLLPQTLRSWMMCFFGIAGTLVMICMATPVFAIIIIPLSILYISVQVFYVATSRQLRRLDSVTKSPIYSHFSETVTGLPIIRAFEHQQRFLAWNEKQIDINQKCVFSWITSNRWLAIRLELVGNLVVFCSALLLVIYRKTLTGDVVGFVLSNALNITQTLNWLVRMTSEAETNIVAVERISEYINVENEAPWVTDKRPPADWPRHGEIQFNNYQVRYRPELDLVLKGITCNIKSGEKVGVVGRTGAGKSSLTNCLFRILESAGGQIIIDGIDVASIGLHDLRERLTIIPQDPILFSGSLRMNLDPFNKYSDEEVWRALELAHLRSFVSGLQLGLLSEVTEGGDNLSIGQRQLLCLGRAVLRKSKILVLDEATAAVDLETDSLIQTTIRKEFSQCTVITIAHRLHTIMDSDKIMVLDNGKIVEYGSPEELLSNRGSFYLMAKEAGIENVNHTEL | – | 124
